Results as given in patent US20090149339A1 (published 2009).
Ends that are not written are not given here. * marks the point of attachment. Biotin = O=C1N[C@H]2[C@H](CS[C@H]2CCCCC(=O)*)N1

Legend:
Test in all cases: A/G assays
[1] = target: T1, GST-KIAA0559 PDZ domain fusion protein (KIAA0559 AA766-870; PDZ1 of 1) (UniProt P08515 1-218 = GST)
T1 construct: also called K559

[2] = target: T2, GST-CBP PDZ domain fusion protein (Cytohesin binding protein HE AA85-175; PDZ domain 1 of 1) (UniProt P08515 1-218 = GST)
T2 construct: also called Prot
T2 sequence (P08515 1-218, tags or fused parts left off): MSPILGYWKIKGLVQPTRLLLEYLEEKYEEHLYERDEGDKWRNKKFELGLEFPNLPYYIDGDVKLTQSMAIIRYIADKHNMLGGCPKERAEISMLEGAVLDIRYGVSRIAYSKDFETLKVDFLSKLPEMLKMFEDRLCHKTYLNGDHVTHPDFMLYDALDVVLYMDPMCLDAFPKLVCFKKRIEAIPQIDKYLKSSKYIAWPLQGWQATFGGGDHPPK

[3] = target: GST-DVL1 PDZ domain fusion protein (human dishevelled segment polarity protein homolog AA248-340); PDZ domain … (human, UniProt P08515 1-218 = GST)
Chain of GST-DVL1 PDZ domain fusion protein (human dishevelled segment polarity protein homolog AA248-340); PDZ domain … (P08515 1-218, tags or fused parts left off): as above

[4] = target: GST-LIM PDZ domain fusion protein (Human LIM protein AA29-112; PDZ domain 1 of 1) (human, UniProt P08515 1-218 = GST)
Chain of GST-LIM PDZ domain fusion protein (Human LIM protein AA29-112; PDZ domain 1 of 1) (P08515 1-218, tags or fused parts left off): as above

[5] = target: T3, GST-TAX43 PDZ domain fusion protein (human tax interaction protein 43 AA15-85; PDZ domain 1 of 1) (human, UniProt P08515 1-218 = GST)
T3 construct: also called TX 43

[6] = target: T4, GST-RGS12 PDZ domain fusion protein (human regulator of G-protein signalling 12 AA35-103; PDZ domain 1 of 1) (human, UniProt P08515 1-218 = GST)
T4 construct: also called RSG12

[7] = target: GST-PTN-4 PDZ domain fusion protein (protein-tyrosine phosphatase meg1 AA774-862; PDZ domain 1 of 1) (UniProt P08515 1-218 = GST)
Chain of GST-PTN-4 PDZ domain fusion protein (protein-tyrosine phosphatase meg1 AA774-862; PDZ domain 1 of 1) (P08515 1-218, tags or fused parts left off): as above

[8] = target: GST-MPP1 PDZ domain fusion protein (55 Kd erythrocyte membrane protein AA101-186; PDZ domain 1 of 1) (UniProt P08515 1-218 = GST)
Chain of GST-MPP1 PDZ domain fusion protein (55 Kd erythrocyte membrane protein AA101-186; PDZ domain 1 of 1) (P08515 1-218, tags or fused parts left off): as above

[9] = target: GST-TIAM1 PDZ domain fusion protein (T-lymphoma invasion and metastasis inducing protein 1 AA1001-1088); PDZ 1 … (UniProt P08515 1-218 = GST)
Chain of GST-TIAM1 PDZ domain fusion protein (T-lymphoma invasion and metastasis inducing protein 1 AA1001-1088); PDZ 1 … (P08515 1-218, tags or fused parts left off): as above

[10] = target: T5, GST-41.8 kD PDZ domain fusion protein (hypothetical 41.8 kD protein AA4-85; PDZ domain 1 of 1) (UniProt P08515 1-218 = GST)
T5 construct: also called hypoth
T5 sequence (P08515 1-218, tags or fused parts left off): as above

[11] = target: GST-NOS1 PDZ domain fusion protein (human neuronal nitric oxide synthase; PDZ domain 1 of 1) (human, UniProt P08515 1-218 = GST)
Chain of GST-NOS1 PDZ domain fusion protein (human neuronal nitric oxide synthase; PDZ domain 1 of 1) (P08515 1-218, tags or fused parts left off): as above

[12] = target: T6, GST-NeDLG PDZ domain fusion protein (presynaptic protein sao102, neuroendocrine-dlg; PDZ domains 1-2 of 3) (UniProt P08515 1-218 = GST)
T6 construct: also called NeDLG1
T6 sequence (P08515 1-218, tags or fused parts left off): as above

[13] = target: T7, GST-KIAA0303 PDZ domain fusion protein (KIAA0303 AA652-742; PDZ domain 1 of 1) (UniProt P08515 1-218 = GST)
T7 construct: also called K303
T7 sequence (P08515 1-218, tags or fused parts left off): as above

[14] = target: T8, GST-TAX40 PDZ domain fusion protein (human tax interaction protein 40 AA35-137; PDZ domain 1 of 1) (human, UniProt P08515 1-218 = GST)
T8 construct: also called TX 40

[15] = target: T9, GST-TAX2 PDZ domain fusion protein (human tax interaction protein 2 AA54-140; PDZ domain 1 of 1) (human, UniProt P08515 1-218 = GST)
T9 construct: also called TX 2
T9 sequence (P08515 1-218, tags or fused parts left off): as above

[16] = target: GST-LIMK2 PDZ domain fusion protein (human LIM domain kinase 2 AA185-275; PDZ domain 1 of 1) (human, UniProt P08515 1-218 = GST)
Chain of GST-LIMK2 PDZ domain fusion protein (human LIM domain kinase 2 AA185-275; PDZ domain 1 of 1) (P08515 1-218, tags or fused parts left off): as above

[17] = target: GST-prIL16 PDZ domain fusion protein (putative interleukin 16 precursor AA170-383; PDZ domains 1-2 of 2) (UniProt P08515 1-218 = GST)
Chain of GST-prIL16 PDZ domain fusion protein (putative interleukin 16 precursor AA170-383; PDZ domains 1-2 of 2) (P08515 1-218, tags or fused parts left off): as above

[18] = target: GST-MINT3 PDZ domain fusion protein (human MINT3 AA11-52; PDZ domain 1 of 1) (human, UniProt P08515 1-218 = GST)
Chain of GST-MINT3 PDZ domain fusion protein (human MINT3 AA11-52; PDZ domain 1 of 1) (P08515 1-218, tags or fused parts left off): as above

[19] = target: GST-AF6 PDZ domain fusion protein (af-6 protein AA985-1077; PDZ domain 1 of 1) (UniProt P08515 1-218 = GST)
Chain of GST-AF6 PDZ domain fusion protein (af-6 protein AA985-1077; PDZ domain 1 of 1) (P08515 1-218, tags or fused parts left off): as above

[20] = target: T10, GST-SYN1a PDZ domain fusion protein (alpha1-syntrophin AA96-189; PDZ domain 1 of 1) (UniProt P08515 1-218 = GST)
T10 construct: also called SYN 1 alpha; SYNTR 1 alpha

[21] = target: T11, GST-KIAA0316 PDZ domain fusion protein (KIAA0316 AA197-284; PDZ domain 1 of 1) (UniProt P08515 1-218 = GST)
T11 construct: also called K316
T11 sequence (P08515 1-218, tags or fused parts left off): as above

[22] = target: T12, GST-CASK PDZ domain fusion protein (CASK AA495-584; PDZ domain 1 of 1) (mouse, UniProt P08515 1-218 = GST)
T12 construct: also called mCASK
T12 sequence (P08515 1-218, tags or fused parts left off): as above

[23] = target: GST-PSD95 PDZ domain fusion protein (human post-synaptic density protein 95 AA387-724; PDZ domains 1-3 of 3) (human, UniProt P08515 1-218 = GST)
Chain of GST-PSD95 PDZ domain fusion protein (human post-synaptic density protein 95 AA387-724; PDZ domains 1-3 of 3) (P08515 1-218, tags or fused parts left off): as above

[24] = target: T13, GST-MPP2 PDZ domain fusion protein (maguk p55 subfamily member 2 (DLG2) AA185-273; PDZ domain 1 of 1) (UniProt P08515 1-218 = GST)
T13 construct: also called MMP2
T13 sequence (P08515 1-218, tags or fused parts left off): as above

[25] = target: T14, GST-TAX33 PDZ domain fusion protein (tax interaction protein 33 AA73-162; PDZ domain 1 of 1) (UniProt P08515 1-218 = GST)
T14 construct: also called TX33
T14 sequence (P08515 1-218, tags or fused parts left off): as above

Measured: binding result

T1 sequence (P08515 1-218, tags or fused parts left off): as above

Biotin-LERTSSVSPSTAEPELSIVF [CC CKR-3 C-terminal PL peptide AA43L, biotinylated]
no binding: all assays above

Biotin-GKGKSIGRAPEASLQDKEGA [CC CKR-2 C-terminal PL peptide AA42L, biotinylated]
no binding: all assays above

Biotin-AWDDSARAAGGQGLHVTAL [LPAP C-terminal PL peptide AA30L, biotinylated]
no binding: all assays above

Biotin-CAISGTSSDRGYGSPRYAEV [CLASP-4 C-terminal PL peptide AA3L-V, biotinylated]
not listed: [10] | [12] | [19] | [23]
no binding: all other assays above

Biotin-SMQPDNSSDSDYDLHGAQRL [CD5 C-terminal PL peptide AA49L, biotinylated]
no binding: all assays above

Biotin-TIYENLAPVTTFGKTIA [CD148 C-terminal PL peptide AA55L (ends KTIA), biotinylated]
no binding: all assays above
